# Test results from IntAct's records for PubMed 32296183.
# B1: Golgi SNAP receptor complex member 2 (Homo sapiens), O14653 (parent)
# chain: MDPLFQQTHKQVHEIQSCMGRLETADKQSVHIVENEIQASIDQIFSRLERLEILSSKEPPNKRQNARLRVDQLKYDVQHLQTALRNFQHRRHAREQQERQREELLSRTFTTNDSDTTIPMDESLQFNSSLQKVHNGMDDLILDGHNILDGLRTQRLTLKGTQKKILDIANMLGLSNTVMRLIEKRAFQDKYFMIGGMLLTCVVMFLVVQYLT
# partner: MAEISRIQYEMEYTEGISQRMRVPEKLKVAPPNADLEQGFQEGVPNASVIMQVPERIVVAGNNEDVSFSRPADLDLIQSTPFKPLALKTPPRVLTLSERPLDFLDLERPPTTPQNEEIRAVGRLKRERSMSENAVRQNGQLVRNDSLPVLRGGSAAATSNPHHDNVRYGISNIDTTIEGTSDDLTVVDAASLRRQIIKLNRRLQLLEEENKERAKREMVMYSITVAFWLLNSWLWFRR
# B2: Catenin alpha-3 (Homo sapiens), Q9UI47-2 (parent)
# chain: MSAETPITLNIDPQDLQVQTFTVEKLLEPLIIQVTTLVNCPQNPSSRKKGRSKRASVLLASVEEATWNLLDKGEKIAQEATVLKDELTASLEEVRKESEALKVSAERFTDDPCFLPKREAVVQAARALLAAVTRLLILADMIDVMCLLQHVSAFQRTFESLKNVANKSDLQKTYQKLGKELENLDYLAFKRQQDLKSPNQRDEIAGARASLKENSPLLHSICSACLEHSDVASLKASKDTVCEEIQNALNVISNASQGIQNMTTPPEPQAATLGSALDELENLIVLNPLTVTEEEIRPSLEKRLEAIISGAALLADSSCTRDLHRERIIAECNAIRQALQDLLSEYMNNAGKKERSNTLNIALDNMCKKTRDLRRQLRKAIIDHVSDSFLDTTVPLLVLIEAAKNGREKEIKEYAAIFHEHTSRLVEVANLACSMSTNEDGIKIVKIAANHLETLCPQIINAALALAARPKSQAVKNTMEMYKRTWENHIHVLTEAVDDITSIDDFLAVSGMFLFF
# partner: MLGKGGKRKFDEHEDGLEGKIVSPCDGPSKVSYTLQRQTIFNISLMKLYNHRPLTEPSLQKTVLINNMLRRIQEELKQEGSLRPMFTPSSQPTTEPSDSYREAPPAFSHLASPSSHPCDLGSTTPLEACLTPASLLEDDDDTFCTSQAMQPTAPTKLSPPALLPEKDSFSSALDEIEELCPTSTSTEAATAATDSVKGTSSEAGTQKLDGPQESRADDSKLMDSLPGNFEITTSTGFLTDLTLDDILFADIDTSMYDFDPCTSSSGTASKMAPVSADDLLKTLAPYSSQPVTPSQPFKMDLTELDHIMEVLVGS
# B3: Very-long-chain enoyl-CoA reductase (Homo sapiens), Q9NZ01 (parent)
# chain: MKHYEVEILDAKTREKLCFLDKVEPHATIAEIKNLFTKTHPQWYPARQSLRLDPKGKSLKDEDVLQKLPVGTTATLYFRDLGAQISWVTVFLTEYAGPLFIYLLFYFRVPFIYGHKYDFTSSRHTVVHLACICHSFHYIKRLLETLFVHRFSHGTMPLRNIFKNCTYYWGFAAWMAYYINHPLYTPPTYGAQQVKLALAIFVICQLGNFSIHMALRDLRPAGSKTRKIPYPTKNPFTWLFLLVSCPNYTYEVGSWIGFAIMTQCLPVALFSLVGFTQMTIWAKGKHRSYLKEFRDYPPLRMPIIPFLL
# partner: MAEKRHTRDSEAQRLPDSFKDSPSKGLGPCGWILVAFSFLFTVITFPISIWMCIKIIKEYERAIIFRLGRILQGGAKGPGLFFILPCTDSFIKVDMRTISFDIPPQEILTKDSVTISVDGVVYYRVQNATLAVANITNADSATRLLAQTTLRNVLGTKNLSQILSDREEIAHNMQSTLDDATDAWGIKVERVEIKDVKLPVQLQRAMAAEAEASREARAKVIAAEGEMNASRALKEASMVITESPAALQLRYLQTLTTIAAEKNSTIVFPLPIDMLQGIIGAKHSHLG
# B4: Ceroid-lipofuscinosis neuronal protein 6 (Homo sapiens), Q9NWW5 (parent)
# chain: MEATRRRQHLGATGGPGAQLGASFLQARHGSVSADEAARTAPFHLDLWFYFTLQNWVLDFGRPIAMLVFPLEWFPLNKPSVGDYFHMAYNVITPFLLLKLIERSPRTLPRSITYVSIIIFIMGASIHLVGDSVNHRLLFSGYQHHLSVRENPIIKNLKPETLIDSFELLYYYDEYLGHCMWYIPFFLILFMYFSGCFTASKAESLIPGPALLLVAPSGLYYWYLVTEGQIFILFIFTFFAMLALVLHQKRKRLFLDSNGLFLFSSFALTLLLVALWVAWLWNDPVLRKKYPGVIYVPEPWAFYTLHVSSRH
# partner: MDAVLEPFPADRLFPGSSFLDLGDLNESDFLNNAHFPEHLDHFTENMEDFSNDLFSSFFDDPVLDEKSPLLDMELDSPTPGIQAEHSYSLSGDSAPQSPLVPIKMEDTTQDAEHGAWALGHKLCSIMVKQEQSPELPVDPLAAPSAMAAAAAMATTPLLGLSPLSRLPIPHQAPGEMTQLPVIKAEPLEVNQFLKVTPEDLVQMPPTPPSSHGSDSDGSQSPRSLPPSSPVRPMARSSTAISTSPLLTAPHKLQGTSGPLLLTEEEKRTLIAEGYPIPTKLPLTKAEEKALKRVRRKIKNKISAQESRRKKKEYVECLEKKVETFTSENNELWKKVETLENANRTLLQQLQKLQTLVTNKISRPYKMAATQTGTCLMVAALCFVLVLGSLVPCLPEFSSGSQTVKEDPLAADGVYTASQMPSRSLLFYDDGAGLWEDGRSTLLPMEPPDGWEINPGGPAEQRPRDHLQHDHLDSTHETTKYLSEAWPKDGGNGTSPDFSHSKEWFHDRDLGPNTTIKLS
# B5: Ceroid-lipofuscinosis neuronal protein 6 (Homo sapiens), Q9NWW5 (parent)
# chain: B4 chain
# partner: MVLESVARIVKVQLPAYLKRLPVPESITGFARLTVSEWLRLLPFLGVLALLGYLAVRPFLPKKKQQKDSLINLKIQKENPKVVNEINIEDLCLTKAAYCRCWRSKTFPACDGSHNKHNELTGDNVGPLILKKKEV
# B6: Golgi SNAP receptor complex member 2 (Homo sapiens), O14653 (parent)
# chain: B1 chain
# partner: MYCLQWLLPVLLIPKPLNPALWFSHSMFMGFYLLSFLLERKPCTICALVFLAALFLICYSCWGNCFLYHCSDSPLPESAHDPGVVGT
# B7: Catenin alpha-3 (Homo sapiens), Q9UI47-2 (parent)
# chain: B2 chain
# partner: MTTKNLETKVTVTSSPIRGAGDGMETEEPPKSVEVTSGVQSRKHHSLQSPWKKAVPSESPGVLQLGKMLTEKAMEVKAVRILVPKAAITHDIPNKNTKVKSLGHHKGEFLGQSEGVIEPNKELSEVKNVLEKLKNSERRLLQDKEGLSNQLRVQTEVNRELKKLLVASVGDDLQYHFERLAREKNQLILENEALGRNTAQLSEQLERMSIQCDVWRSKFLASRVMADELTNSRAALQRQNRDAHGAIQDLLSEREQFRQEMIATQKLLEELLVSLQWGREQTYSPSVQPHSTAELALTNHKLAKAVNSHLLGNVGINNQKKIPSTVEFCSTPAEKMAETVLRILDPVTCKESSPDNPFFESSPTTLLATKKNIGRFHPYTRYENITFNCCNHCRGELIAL
# Variants of: B1
# Details: with MFF
row,effect of a mutation on the interaction,Variant
1,disrupting interaction strength,G144W

# Variants of: B2
# Details: with srtd2_human SERTAD2, Q14140
row,effect of a mutation on the interaction,Variant
1,disrupting interaction strength,V94D

# Variants of: B3
# Details: with stom_human STOM
row,effect of a mutation on the interaction,Variant
1,disrupting interaction strength,P182L

# Variants of: B4
# Details: with cr3l1_human CREB3L1, Q96BA8
row,effect of a mutation on the interaction,Variant
1,with no effect,R6T
2,with no effect,L47F
3,with no effect,G123D

# Variants of: B5
# Details: with cisd2_human CISD2, Q8N5K1
row,effect of a mutation on the interaction,Variant
1,with no effect,G123D
2,with no effect,L47F
3,with no effect,R6T

# Variants of: B6
# Details: with blcap_human BLCAP
row,effect of a mutation on the interaction,Variant
1,with no effect,G144W

# Variants of: B7
# Details: with go45_human BLZF1, Q9H2G9
row,effect of a mutation on the interaction,Variant
1,disrupting interaction strength,V94D
